# System: Escherichia coli TOP10
# Assay: shrunken log2 fold change of peptide-encoding DNA abundance (4.5 h post-induction vs induction); higher = less antimicrobial activity (less host growth inhibition)
# Settings: time post-induction: 4.5 h; library: site-saturation at positions 5, 18, 19, 20
# 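Also: peptides expressed intracellularly from a pBAD plasmid library in pooled LB shake-flask culture, induced with 0.3% L-arabinose, DNA abundance read by NGS, three biological replicates, DESeq2 with apeglm shrinkage.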
row,Sequence,shrunken log2 fold change
1,RRIRLRPPRLPRPRPRPDIRPRP,-0.15
2,RRIRARPPRLPRPRPRPREYPRP,0.5
3,RRIRSRPPRLPRPRPRPQDEPRP,-0.101
4,RRIRDRPPRLPRPRPRPWRLPRP,-0.264
5,RRIRCRPPRLPRPRPRPWFKPRP,-0.582
6,RRIRYRPPRLPRPRPRPLQEPRP,-0.218
7,RRIRWRPPRLPRPRPRPQVPPRP,-0.211
8,RRIRTRPPRLPRPRPRPHHGPRP,-0.0105
9,RRIRERPPRLPRPRPRPWFDPRP,-0.529
10,RRIRSRPPRLPRPRPRPFLGPRP,-0.186
11,RRIRTRPPRLPRPRPRPPYIPRP,-0.694
12,RRIRERPPRLPRPRPRPNECPRP,-0.154
13,RRIRSRPPRLPRPRPRPQAYPRP,0.0251
14,RRIRGRPPRLPRPRPRPQNDPRP,0.128
15,RRIRARPPRLPRPRPRPIYHPRP,-0.359
16,RRIRDRPPRLPRPRPRPSIAPRP,0.146
17,RRIRGRPPRLPRPRPRPVCLPRP,1.1
18,RRIRQRPPRLPRPRPRPDGVPRP,-0.119
19,RRIRQRPPRLPRPRPRPCWHPRP,-0.129
20,RRIRDRPPRLPRPRPRPLLFPRP,0.445
21,RRIRARPPRLPRPRPRPIERPRP,0.047
22,RRIRQRPPRLPRPRPRPLYQPRP,-0.185
23,RRIRKRPPRLPRPRPRPNETPRP,0.118
24,RRIRQRPPRLPRPRPRPDFSPRP,0.0756
25,RRIRGRPPRLPRPRPRPASQPRP,0.76

row,Sequence,shrunken log2 fold change
1,RRIRCRPPRLPRPRPRPTQRPRP,0.514
2,RRIRRRPPRLPRPRPRPGRPPRP,0.259
3,RRIRDRPPRLPRPRPRPERKPRP,0.0234
4,RRIRSRPPRLPRPRPRPHLGPRP,-0.385
5,RRIRGRPPRLPRPRPRPRGEPRP,1.04
6,RRIRVRPPRLPRPRPRPMTDPRP,0.168
7,RRIRWRPPRLPRPRPRPHYVPRP,-0.113
8,RRIRVRPPRLPRPRPRPQGPPRP,0.107
9,RRIRCRPPRLPRPRPRPHNTPRP,-0.246
10,RRIRIRPPRLPRPRPRPKQIPRP,-0.205
11,RRIRDRPPRLPRPRPRPVFTPRP,0.076
12,RRIRRRPPRLPRPRPRPPMPPRP,0.568
13,RRIRTRPPRLPRPRPRPCGHPRP,-0.14
14,RRIRWRPPRLPRPRPRPAAMPRP,0.604
15,RRIRFRPPRLPRPRPRPSISPRP,-1.18
16,RRIRDRPPRLPRPRPRPTVAPRP,1.14
17,RRIRMRPPRLPRPRPRPVDGPRP,1.08
18,RRIRSRPPRLPRPRPRPCLHPRP,-0.0514
19,RRIRYRPPRLPRPRPRPNCPPRP,-0.272
20,RRIRNRPPRLPRPRPRPCQNPRP,-0.835
21,RRIRSRPPRLPRPRPRPLQCPRP,0.116
22,RRIRPRPPRLPRPRPRPTHMPRP,0.255
23,RRIRFRPPRLPRPRPRPNHGPRP,-0.4
24,RRIRTRPPRLPRPRPRPFNLPRP,-0.336
25,RRIRVRPPRLPRPRPRPFRRPRP,-0.101

row,Sequence,shrunken log2 fold change
1,RRIRNRPPRLPRPRPRPMLIPRP,-0.0638
2,RRIRARPPRLPRPRPRPMQMPRP,0.626
3,RRIRERPPRLPRPRPRPHSTPRP,-0.817
4,RRIRDRPPRLPRPRPRPTKVPRP,-0.274
5,RRIRFRPPRLPRPRPRPICFPRP,-0.293
6,RRIRFRPPRLPRPRPRPSHRPRP,-0.214
7,RRIRWRPPRLPRPRPRPMAMPRP,0.00646
8,RRIRMRPPRLPRPRPRPEVHPRP,-0.0544
9,RRIRKRPPRLPRPRPRPGNMPRP,0.257
10,RRIRTRPPRLPRPRPRPCFWPRP,0.0653
11,RRIRLRPPRLPRPRPRPFTHPRP,-0.342
12,RRIRYRPPRLPRPRPRPRDQPRP,-0.0852
13,RRIRDRPPRLPRPRPRPLNCPRP,-0.0225
14,RRIRKRPPRLPRPRPRPARCPRP,0.782
15,RRIRPRPPRLPRPRPRPCRDPRP,1.11
16,RRIRKRPPRLPRPRPRPCSLPRP,-0.529
17,RRIRFRPPRLPRPRPRPGPAPRP,0.544
18,RRIRLRPPRLPRPRPRPNIGPRP,-0.00419
19,RRIRIRPPRLPRPRPRPLREPRP,0.255
20,RRIRQRPPRLPRPRPRPISNPRP,-0.223
21,RRIRIRPPRLPRPRPRPCKGPRP,0.00355
22,RRIRWRPPRLPRPRPRPFRSPRP,-0.128
23,RRIRLRPPRLPRPRPRPASLPRP,0.105
24,RRIRYRPPRLPRPRPRPLMRPRP,-0.0447
25,RRIRERPPRLPRPRPRPAIVPRP,0.00833

row,Sequence,shrunken log2 fold change
1,RRIRKRPPRLPRPRPRPYICPRP,0.0572
2,RRIRSRPPRLPRPRPRPSHTPRP,-0.572
3,RRIRIRPPRLPRPRPRPDHEPRP,0.147
4,RRIRRRPPRLPRPRPRPYMSPRP,-0.054
5,RRIRPRPPRLPRPRPRPRAWPRP,0.0147
6,RRIRYRPPRLPRPRPRPQDRPRP,-0.00674
7,RRIRVRPPRLPRPRPRPCQRPRP,0.0972
8,RRIRHRPPRLPRPRPRPAQEPRP,0.381
9,RRIRLRPPRLPRPRPRPALPPRP,0.128
10,RRIRQRPPRLPRPRPRPPDPPRP,0.151
11,RRIRDRPPRLPRPRPRPLRAPRP,1.15
12,RRIRWRPPRLPRPRPRPVINPRP,-0.0708
13,RRIRARPPRLPRPRPRPVNEPRP,0.356
14,RRIRGRPPRLPRPRPRPHLNPRP,0.0325
15,RRIRCRPPRLPRPRPRPTGFPRP,-0.135
16,RRIRLRPPRLPRPRPRPNLTPRP,-0.299
17,RRIRNRPPRLPRPRPRPYKFPRP,-0.286
18,RRIRGRPPRLPRPRPRPKHMPRP,0.0797
19,RRIRIRPPRLPRPRPRPSAFPRP,-0.15
20,RRIRERPPRLPRPRPRPPCQPRP,0.0382
21,RRIRHRPPRLPRPRPRPRREPRP,0.217
22,RRIRLRPPRLPRPRPRPGEHPRP,-0.145
23,RRIRERPPRLPRPRPRPHPTPRP,0.0575
24,RRIRGRPPRLPRPRPRPVIQPRP,0.0682
25,RRIRPRPPRLPRPRPRPKPTPRP,0.434

row,Sequence,shrunken log2 fold change
1,RRIRARPPRLPRPRPRPHMEPRP,0.157
2,RRIRIRPPRLPRPRPRPVWKPRP,0.154
3,RRIRDRPPRLPRPRPRPDTQPRP,0.419
4,RRIRVRPPRLPRPRPRPLHTPRP,-0.0261
5,RRIRERPPRLPRPRPRPNVIPRP,-1.38
6,RRIRDRPPRLPRPRPRPHGNPRP,-0.149
7,RRIRVRPPRLPRPRPRPCLDPRP,-0.135
8,RRIRPRPPRLPRPRPRPSYTPRP,-0.868
9,RRIRQRPPRLPRPRPRPHRYPRP,-0.812
10,RRIRHRPPRLPRPRPRPWGFPRP,-0.0192
11,RRIRQRPPRLPRPRPRPMMNPRP,-0.127
12,RRIRERPPRLPRPRPRPPARPRP,0.451
13,RRIRIRPPRLPRPRPRPHDTPRP,-0.548
14,RRIRERPPRLPRPRPRPKPFPRP,-0.37
15,RRIRGRPPRLPRPRPRPCCEPRP,0.528
16,RRIRVRPPRLPRPRPRPLSHPRP,-0.32
17,RRIRIRPPRLPRPRPRPAEKPRP,-0.213
18,RRIRKRPPRLPRPRPRPCSAPRP,-0.0728
19,RRIRGRPPRLPRPRPRPKMVPRP,0.79
20,RRIRCRPPRLPRPRPRPNCRPRP,-0.00263
21,RRIRNRPPRLPRPRPRPNIYPRP,-0.42
22,RRIRLRPPRLPRPRPRPSFAPRP,-0.067
23,RRIRTRPPRLPRPRPRPSEYPRP,-0.0517
24,RRIRERPPRLPRPRPRPIVLPRP,-0.579
25,RRIRLRPPRLPRPRPRPYMVPRP,-0.288

row,Sequence,shrunken log2 fold change
1,RRIRKRPPRLPRPRPRPCSKPRP,-0.01
2,RRIRERPPRLPRPRPRPPQLPRP,0.194
3,RRIRWRPPRLPRPRPRPRPSPRP,0.766
4,RRIRARPPRLPRPRPRPMKFPRP,0.0174
5,RRIRSRPPRLPRPRPRPKGGPRP,0.149
6,RRIRWRPPRLPRPRPRPPETPRP,0.166
7,RRIRGRPPRLPRPRPRPYTNPRP,-0.313
8,RRIRIRPPRLPRPRPRPPQRPRP,0.27
9,RRIRFRPPRLPRPRPRPTKLPRP,-0.494
10,RRIRVRPPRLPRPRPRPKAKPRP,0.0989
11,RRIRERPPRLPRPRPRPRFQPRP,0.2
12,RRIRNRPPRLPRPRPRPEAWPRP,-0.0397
13,RRIRERPPRLPRPRPRPYQFPRP,-0.159
14,RRIRWRPPRLPRPRPRPLCYPRP,0.0105
15,RRIRARPPRLPRPRPRPRFWPRP,0.691
16,RRIRDRPPRLPRPRPRPRYQPRP,0.204
17,RRIRNRPPRLPRPRPRPKFSPRP,-0.0617
18,RRIRWRPPRLPRPRPRPVSTPRP,0.138
19,RRIRSRPPRLPRPRPRPGNPPRP,0.0113
20,RRIRMRPPRLPRPRPRPYGAPRP,-0.105
21,RRIRDRPPRLPRPRPRPYSGPRP,-0.035
22,RRIRSRPPRLPRPRPRPSTDPRP,-0.168
23,RRIRIRPPRLPRPRPRPVGYPRP,0.0961
24,RRIRVRPPRLPRPRPRPGTGPRP,0.148
25,RRIRIRPPRLPRPRPRPFPCPRP,-0.0282
